In one experiment the target is T1, 6His-NXF1 1-198 (UniProt Q9UBU9 1-198).
T1 sequence (looked up): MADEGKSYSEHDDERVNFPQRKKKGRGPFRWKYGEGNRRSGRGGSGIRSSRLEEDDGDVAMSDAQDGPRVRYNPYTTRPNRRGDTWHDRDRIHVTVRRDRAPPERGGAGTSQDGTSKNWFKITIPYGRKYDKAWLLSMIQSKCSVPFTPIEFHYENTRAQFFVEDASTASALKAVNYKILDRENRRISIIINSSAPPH
Put plainly: ITC.

The target in another experiment is T2, GST-NXF1:p15 complex (UniProt Q9UBU9 1-619; Q9UKK6 1-140).
T2 sequence (looked up) 1: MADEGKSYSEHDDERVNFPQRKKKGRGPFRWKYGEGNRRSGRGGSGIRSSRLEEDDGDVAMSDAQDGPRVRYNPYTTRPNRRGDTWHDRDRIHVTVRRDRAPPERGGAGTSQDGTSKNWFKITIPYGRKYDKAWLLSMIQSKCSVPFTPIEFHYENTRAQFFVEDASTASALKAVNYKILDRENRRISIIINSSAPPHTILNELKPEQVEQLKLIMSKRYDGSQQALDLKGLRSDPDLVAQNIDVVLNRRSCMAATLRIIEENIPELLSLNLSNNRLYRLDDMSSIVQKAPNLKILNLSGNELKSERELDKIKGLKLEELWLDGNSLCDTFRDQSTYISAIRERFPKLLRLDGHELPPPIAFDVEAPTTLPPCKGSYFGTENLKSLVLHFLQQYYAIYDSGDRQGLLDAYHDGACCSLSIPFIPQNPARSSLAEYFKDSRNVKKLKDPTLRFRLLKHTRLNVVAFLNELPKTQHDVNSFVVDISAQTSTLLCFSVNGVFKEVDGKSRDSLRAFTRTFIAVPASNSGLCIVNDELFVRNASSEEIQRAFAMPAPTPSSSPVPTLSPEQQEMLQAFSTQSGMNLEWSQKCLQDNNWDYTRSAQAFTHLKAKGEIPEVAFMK
T2 sequence (looked up) 2: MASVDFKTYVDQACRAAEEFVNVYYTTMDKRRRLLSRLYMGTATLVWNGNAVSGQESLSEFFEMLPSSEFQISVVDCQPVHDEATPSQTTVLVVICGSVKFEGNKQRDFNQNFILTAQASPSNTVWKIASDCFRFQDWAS
Kind of experiment: pull-down.

Where a chain is given by its changes, count along the chain named. No end group written: not given here.

B1: SRSF1 WT-CPP (SRSF1 aa89-120, V5 tag, TAT protein transduction domain) (peptide, UniProt Q07955 89-120, looked up)
peptide: PRSGRGTGRGGGGGGGGGAPRGRYGPPSRRSEYGRKKRRQRRR
As to B1, in the experiment with 6His-NXF1 1-198, the “fold increase of affinity against the wild-type SRSF1 peptide” value turned out to be 5 fold.

B2: SRSF1 (amino-acids 11-196), 6His-tagged (domain or fragment, UniProt Q07955 11-196, looked up)
chain: AGNNDCRIYVGNLPPDIRTKDIEDVFYKYGAIRDIDLKNRRGGPPFAFVEFEDPRDAEDAVYGRDGYDYDGYRLRVEFPRSGRGTGRGGGGGGGGGAPRGRYGPPSRRSENRVVVSGLPPSGSWQDLKDHMREAGDVCYADVYRDGTGVVEFVRKEDMTYAVRKLDNTKFRSHEGETAYIRVKVDG
As to B2, the binding result with GST-NXF1:p15 complex is “binds”.

B3: SRSF1 aa 89-120 m4-mutant peptide (peptide, UniProt Q07955 89-120, looked up)
peptide: PASGAGTGRGGGGGGGGGAPRGRYGPPSAASE
modifications: also: FAM label, position not given here
Regarding B3, the “fold reduction of affinity against SRSF1 WT-CPP” value with 6His-NXF1 1-198 is approximately 10 fold.

B4: SRSF1 aa 89-120 wild-type peptide (peptide, UniProt Q07955 89-120, looked up)
peptide: B3 peptide with A2R, A5R, A29R, A30R
modifications: also: FAM label, position not given here
For B4, the binding result with 6His-NXF1 1-198 is on record as “binds”.

Values taken from publication doi:10.1101/2021.05.23.445325 (bioRxiv, 2021).
